Assay results: patent publication US20240409645A1 (DUALYX, published 2024)

T1: human IL-2Rα (human, UniProt P01589 22-240, limits assumed)
T1 construct: recombinant protein; also called hu IL-2R; human IL-2Ra
T1 sequence: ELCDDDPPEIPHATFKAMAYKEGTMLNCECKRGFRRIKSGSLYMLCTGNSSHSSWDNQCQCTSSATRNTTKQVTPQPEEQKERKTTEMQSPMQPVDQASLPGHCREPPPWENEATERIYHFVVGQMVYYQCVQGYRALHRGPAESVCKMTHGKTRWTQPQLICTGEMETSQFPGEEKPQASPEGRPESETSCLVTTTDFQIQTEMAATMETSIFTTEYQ


What was measured:
human IL-2Rα [1] = target: T1, human IL-2Rα; assay: ELISA, P.E. on coated antigen
Description: In a binding ELISA, human or mouse IL-2Rα, IL-2Rβ and IL-2Rγ proteins were coated directly on maxisorp microtiter plates overnight at 4° C. Free binding sites were blocked using 4% Marvel in PBS for 1 hour. Next, 1:5 dilution of P.E. in 1% Marvel/PBS were added to wells and incubated for 1 hour. […] Binding specificity was determined based on O.D. at 450 nm values compared to negative controls.

human IL-2Rα [2] = target: T1, human IL-2Rα; assay: SPR, P.E. on immobilised antigen
Description: SPR was performed to determine dissociation rates using Biacore 3000 instrument (GE Healthcare). Briefly, human and mouse IL-2R proteins were immobilized on carboxylmethyl dextran sensor chip (CM5) at approximately 2500 RUs using amine coupling in acetate buffer (GE Healthcare). The VHH-containing P.E. were loaded with a flow rate of 30 uL/min and the off-rates were measured over a 120s period.

| Binder | OD (PE binding ELISA) (human IL-2Rα [1]) | koff (human IL-2Rα [2]) |
| --- | --- | --- |
| FJ1427_P035MP01F07 (VHH, periplasmic extract; also called clone nr; 54) VHH: QVQLVESGGGLVQAGGSLRLSCAATGLTFRQHNMGWFRRAPGKEREFVAAISWNVGSTYFADSVKGRFTISRDNGKNMVYLQMNSLKPEDTAVYYCAADNIPLASDMRATATAYGYWGQGTQVTVSS | 2.76 OD450 nm | 0.00067 s⁻¹ |
| FJ1427_P035MP05E11 (VHH, periplasmic extract; also called clone nr) VHH: EVQLVESGGGSVQAGGSLRLSCAASGRTLYSSYGMAWFRQAPGKERDFVGSISRYGTYTSYADSVKDRFTISRDNAKSTVYLQMNNTKPEDTAVYYCAAYTYSGSFYSTVKTHRDEYQYWGQGTQVTVSS | 2.35 OD450 nm | 0.001 s⁻¹ |
| FJ1427_P035MP05A07 (VHH, periplasmic extract; also called clone nr) VHH: QVQLVESGGGLAQAGASLRLSCAASGRTLYSSYGMAWFRQAPGKERDFVGSISRYGTYTSYADSVKGRFTISRDNAKSTVYLQMNNTKPEDTAVYYCAAYTYSGSFYSTVKTHRDEYQYWGQGTQVTVSS | 2.43 OD450 nm | 0.00104 s⁻¹ |
| FJ1427_P035MP05C04 (VHH, periplasmic extract; also called clone nr; 411) VHH: EVQLVESGGGSVQAGGSLRLSCEASGRTLFSSYGMGWFRQAPGKEREFVGAISRFGTYTSYADPVKDRFTISRDNAKSTVYLQMNNTKPEDTAVYYCAAYTYSGSFYSTVKTHHDEYRYWGQGTQVTVSS | 1.83 OD450 nm | 0.000905 s⁻¹ |
| FJ1427_P035MP05C07 (VHH, periplasmic extract; also called 92-MP05C07) VHH: QVQLVESGGGSVQAGGSLRLSCEASGRTLFSSYGMGWFRQAPGKEREFVGAISRFGTYTSYADPVKDRFTISRDNAKSTVYLQMNNTKPEDTAVYYCAAYTYSGSFYSTVKTHHDEYRYWGQGTQVTVSS | 1.73 OD450 nm | 0.00141 s⁻¹ |
| FJ1427_P035MP05E03 (VHH, periplasmic extract; also called clone nr) VHH: EVQLVESGGGLVQAGGSLRLSCAASGRTLYSSYGMAWFRQAPGKERDFVGSISRYGTYTSYADSVKDRFTISRDNAKSTVYLQMNNTKPEDTAVYYCAAYTYSGSFYSTVKTHRDEYQYWGQGTQVTVSS | 2.48 OD450 nm | 0.000772 s⁻¹ |
| FJ1427_P035MP01E04 (VHH, periplasmic extract; also called clone nr; 29) VHH: QVQLVESGGGLVQAGDSLRLSCAVSGRSFRNYILAWYRQAPGKEREFLAAISWLDGTFYANSVEGRFTISRDNPKNTVHLQMDGLKPEDTAVYYCAADRGPVRPVLAPDVDYWGQGTQVTVAS | 2.61 OD450 nm | 0.00235 s⁻¹ |
| FJ1427_P035MP01G07 (VHH, periplasmic extract; also called clone nr; 55) VHH: QVQLVESGGGLVQTGDSLRLSCAASGRSFRNYILAWYRQAPGKEREFLAAISWLDGTLYADSVEGRFTISRDNPKNTVHLQMDSLKPEDTAVYYCAADRGPVRPVLAPDVDYWGQGTQVTVSS | 2.75 OD450 nm | 0.0015 s⁻¹ |
| FJ1427_P035MP01F11 (VHH, periplasmic extract; also called clone nr; 86) VHH: QVQLQESGGGLVQAGDSLRLSCAASGRSFRNYILAWYRQAPGKEREFLAAISWLDGTLYADSVEDRFTISRDNPKNTVHLQMDSLKPEDTAVYYCAADRGPVRPVLAPDVDYWGQGTQVTVSS | 2.74 OD450 nm | 0.00118 s⁻¹ |
| FJ1427_P035MP01E07 (VHH, periplasmic extract; also called clone nr; 53) VHH: QVQLQESGGGLVQAGDSLRLSCAASGRSFRNYILAWYRQAPGKEREFLAAISWLEGTLYADSVEDRFTISRDNPKNTVHLQMDSLKPEDTAVYYCAADRGPVRPVLAPDVDYWGQGTQVTVSS | 2.73 OD450 nm | 0.00159 s⁻¹ |
| FJ1427_P035MP05E08 (VHH, periplasmic extract; also called clone nr) VHH: EVQLVESGGGSVQAGGSLRLSCEASGPTLFSSYGMGWFRQAPGKKEREFVGAISRYGTYTSYADPVKDRFTISRDNAKSTVYLQMNNTKPEDTAVYYCAAYTYSGSFYSTVKTHHDEYHYWGQGTQVTVSS | 2.33 OD450 nm | 0.000214 s⁻¹ |
| FJ1427_P035MP05D11 (VHH, periplasmic extract; also called clone nr) VHH: QVQLVESGGGSVQAGGSLRLSCEASGPTLFSSYGMGWFRQAPGKKEREFVGAISRYGTYTSYADPVKDRLTISRGNAKSTVYLQMNNTKPEDTAVYYCAAYTYSGSFYSTVKTHHDEYHYWGQGTQVTVSS | 2.54 OD450 nm | 0.000662 s⁻¹ |
| FJ1427_P035MP05B07 (VHH, periplasmic extract; also called clone nr) VHH: QLQLVESGGGLVQAGGSLRLSCAASGLTFDGYAIGWFRQASGKEREGVSYINGRDGSTFYADSVKGRFIISSDNAKNTVDLQMNSLKPDDAAVYYCAVDRLGSRGAYVSSWWRSPDMDLWGKGTLVTVSS | 1.77 OD450 nm | 0.00195 s⁻¹ |
| FJ1427_P035MP01F06 (VHH, periplasmic extract; also called clone nr; 46) VHH: QLQLVESGGGLVQAGGSLRLSCAASGGAFSRYAVGWFRMAPGKGREFVSAIDLSGTNTHVLDSVKGRFTISRDNDKNTAYLQMDKLQPEDTAVYWCAATSSSYSDYEANYNIWGQGTQVTVSS | 2.71 OD450 nm | 0.000526 s⁻¹ |
| FJ1427_P035MP01G10 (VHH, periplasmic extract; also called clone nr; 79) VHH: EVQLVESGGGLVQAGGSLRLSCAASGGAFSRYAVGWFRMAPGKGREFVSAIDLSGTNTHVLDSVKGRFTISRDNDKNTAYLQMDKLQPEDTAVYWCAATSSSYSDYEANYNIWGQGTQVTVSS | 2.75 OD450 nm | 0.000443 s⁻¹ |
| FJ1427_P035MP01H02 (VHH, periplasmic extract; also called clone nr; 16) VHH: QLQLVESGGGLVQAGDSLRLSCAASGRAFSRYAVGWFRMAPGKGREFVSAINSSGANTYVLDSVKGRFTISRDNDKNTAYLQMDSLQPEDTAVYWCAATSSSYSTYEANYNVWGQGTQVTVSS | 2.35 OD450 nm | 0.00115 s⁻¹ |
| FJ1427_P035MP01F08 (VHH, periplasmic extract; also called clone nr; 62) VHH: EVQLVESGGGWVQPGDSLRLSCAASGRSFRNYVMGWFRQVPGKEREFLSVITSLGGTLDADSVADRFTISRDNSKNTVYLQMDSLKPEDTAVYYCAADRGPARYISASDVDYWGQGTQVTVSS | 2.71 OD450 nm | 0.00162 s⁻¹ |
| FJ1427_P035MP01B01 (VHH, periplasmic extract; also called clone nr) VHH: EVQLVESGGGWVQAGDSLRLSCAASGRTFRNYVMGWFRQVPGKEREFLSVITSLGGTVYADSVANRFTISRDNPKDTVYLQMDSLKPEDTAVYYCAADRGPARYISASDVDYWGQGTQVTASS | 2.78 OD450 nm | 0.00178 s⁻¹ |
| FJ1427_P035MP01D04 (VHH, periplasmic extract; also called clone nr; 28) VHH: QVQLVESGGGWVQPGDSLRLSCAASGRSFRNYVMGWFRQVPGKEREFLSVITWLGGTLDADSVADRFTISRDNSKNTVYLQMDSLKPEDTAVYYCAADRGPARYISASDVDYWGQGTQVTVSS | 2.76 OD450 nm | 0.00295 s⁻¹ |
| FJ1427_P035MP01E12 (VHH, periplasmic extract; also called clone nr; 93) VHH: QVQLVESGGGLVQAGGSLRLSCAASGITFNDHTMAWFRQAPGKEREFVAARDWSDIITRYASSVKGRFTISRDNAGNTGFLQMNSLRPEDTAVYYCAAREGGVVAGVRSGAPYDYWGQGTQVTVSS | 2.69 OD450 nm | 0.000141 s⁻¹ |
| FJ1427_P035MP01G11 (VHH, periplasmic extract; also called clone nr; 87) VHH: QVQLVESGGGLVQAGGSLRLSCAASGITFNDHTMAWFRQAPGKEREFVAARDWSDIITRYASSVKGRFTISRDNAGNTGFLQMNSLRPEDTAVYYCAAREGGVVAGVRSGAPYDYWGRGTQVTVSS | 2.73 OD450 nm | 0.000123 s⁻¹ |
| FJ1427_P035MP05H01 (VHH, periplasmic extract; also called clone nr) VHH: EVQLVESGGGLVQAGGSLRLSCAASGITFNDHTMAWFRQAPGKEREFVAARDWSDIITRYASSVKGRFTISRDNAGNTGFLQMNSLRPEDTAVYYCAAREGGVVAGVRSGAPYDYWGQGTQVTVSS | 2.62 OD450 nm | 0.000141 s⁻¹ |
| FJ1427_P035MP01F12 (VHH, periplasmic extract; also called clone nr; 94) VHH: EVQLVESGGGLVQAGGSLGLSCAASGITFNDHTMAWFRQAPGKEREFVAARDWSDIITRYASSVKGRFTISRDNAGNTGFLQMNSLRPEDTAVYYCAAREGGVVAGVRSGAPYDYWGQGTQVTVSP | 2.67 OD450 nm | 0.00011 s⁻¹ |
| FJ1427_P035MP05H02 (VHH, periplasmic extract; also called clone nr; 400) VHH: EVQLVESGGGLVQAGGSLRLSCAASGITFNDHTMAWFRQAPGKEREFVAARDWSDIITRYAGSVKGRFTISRDNAGNTGFLQMNSLRPEDTAVYYCAAREGGVVAGVRSGAPYDYWGQGTQVTVSS | 2.29 OD450 nm | 0.000141 s⁻¹ |
| FJ1427_P035MP05B03 (VHH, periplasmic extract; also called clone nr) VHH: QVQLQESGGGLVQPGGSLRLSCAASGITFNDHTMAWFRQAPGKEREFVAARDWSDIITRYASSVKGRFTISRDNAGNTGFLQMNSLRPEDTAVYYCAAREGGVVAGVRSGAPYDYWGQGTQVTVSS | 2.42 OD450 nm | 0.000131 s⁻¹ |
| FJ1427_P035MP01F02 (VHH, periplasmic extract; also called clone nr; 14) VHH: QVQLQESGGGLVQAGGSLRLSCAASGRTFRTHNMGWFRRAPGKEREFVAAISWNIDNKLYADSVKGRSTISRDNGGNMVFLQMNSLKPEDTAVYYCAADKIPLSSDVAATATEYDDWGQGTQVTVSS | 2.5 OD450 nm | 0.00391 s⁻¹ |
